Biological target: T1, eCK8 (Homo sapiens, UniProt P05787)
T1 construct: methods to investigate on CK8 cellular expression at the cell surface analysed by flow cytometry; endogenous in cells
T1 sequence (P05787 1-483): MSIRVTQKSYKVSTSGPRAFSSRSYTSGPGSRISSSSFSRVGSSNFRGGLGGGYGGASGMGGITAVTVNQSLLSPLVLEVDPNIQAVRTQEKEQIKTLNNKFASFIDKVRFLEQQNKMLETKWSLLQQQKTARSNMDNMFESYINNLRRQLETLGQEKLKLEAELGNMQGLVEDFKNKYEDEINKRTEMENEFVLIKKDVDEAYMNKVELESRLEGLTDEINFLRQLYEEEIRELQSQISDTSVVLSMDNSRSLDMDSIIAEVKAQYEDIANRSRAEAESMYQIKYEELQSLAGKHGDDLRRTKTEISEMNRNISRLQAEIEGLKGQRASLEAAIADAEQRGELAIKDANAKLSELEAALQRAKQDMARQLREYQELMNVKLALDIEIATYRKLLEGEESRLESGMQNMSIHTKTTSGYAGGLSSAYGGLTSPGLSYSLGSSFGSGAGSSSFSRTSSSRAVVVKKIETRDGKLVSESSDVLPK
Experiment: Antibody binding assay by flow cytometry (eCK8 expression on solid tumour cell lines)
Conditions: MAb 5 μg/mL, mean ± SD
Protocol: Cell lines. The established human neuroglioma cells H4, HS683, U373 or A172 (available from ATCC); the established human colorectal cells HT29; the established human pancreatic cells PANC1 or MIA-PA-CA2; the established human kidney adenocarcinoma cells A704 or ACHN and the established human lung adenocarcinoma cells A549 were grown in Dulbecco's Modified Eagle's Medium (Sigma, St Quentin Fallavier, France) supplemented with 10% heat-inactivated foetal bovine serum (FBS) (Sigma, St Quentin Fallavier, France), […] L-glutamine (Sigma, St Quentin Fallavier, France) and 100 U/mL, 100 μg/mL penicillin-streptomycin (Sigma, St Quentin Fallavier, France). The established human glioblastoma astrocytoma cells U87MG or T98G, the human head and neck cancer cells FaDu or Detroit562, the human urinary cancer cells UM-UC-3, J82, HT1197 or HT1376 and the human prostate cancer cells DU145 were grown in Eagle's Minimum Essential Medium (Sigma, St Quentin Fallavier, France) supplemented with 10% heat-inactivated fetal bovine serum (FBS) (Sigma, St Quentin Fallavier, France), […] L-glutamine (Sigma, St Quentin Fallavier, France) and 100 U/mL, 100 μg/mL penicillin-streptomycin (Sigma, St Quentin Fallavier, France). The established human breast adenocarcinoma cells MDAMB231, MCF-7 or HBL100 and the human colorectal cancer cells HCT116 were grown in Dulbecco's Modified Eagle's Medium Glutamax Low Glucose (Life Technologies, St Aubin, France) supplemented with 10% heat-inactivated fetal bovine serum (FBS) (Sigma, St Quentin Fallavier, France), […] L-glutamine (Sigma, St Quentin Fallavier, France) and 100 U/mL, 100 μg/mL penicillin-streptomycin (Sigma, St Quentin Fallavier, France).The established human colorectal cells HCT15 or SW480 and the human head and neck cancer cells TR146 were grown in Dulbecco's Modified Eagle's Medium Glutamax High Glucose (Life Technologies, St Aubin, France) supplemented with 10% heat-inactivated fetal bovine serum (FBS) (Sigma, St Quentin Fallavier, France) and 100 U/mL, 100 μg/mL penicillin-streptomycin (Sigma, St Quentin Fallavier, France). The established human head and neck cancer cells BICR16, BICR18 or BICR56 were grown in Dulbecco's Modified Eagle's Medium (Sigma, St Quentin Fallavier, France) supplemented with 10% heat-inactivated foetal bovine serum (FBS) (Sigma, St Quentin Fallavier, France), […] L-glutamine (Sigma, St Quentin Fallavier, France), 100 U/mL, 100 μg/mL penicillin-streptomycin (Sigma, St Quentin Fallavier, France) and 0.4 μg/mL hydrocortisone (Sigma, St Quentin Fallavier, France). The established human head and neck cancer cells SCC9, SCC4 or SCC15 were grown in Dulbecco's Modified Eagle's Medium/F12 (Life Technologies, St Aubin, France) supplemented with 10% heat-inactivated foetal bovine serum (FBS) (Sigma, St Quentin Fallavier, France), […] L-glutamine (Sigma, St Quentin Fallavier, France), 100 U/mL, 100 μg/mL penicillin-streptomycin (Sigma, St Quentin Fallavier, France) and 0,4 μg/mL hydrocortisone (Sigma, St Quentin Fallavier, France). The established human urinary bladder carcinoma cells 5637, the human prostate cancer cells LNCap clone FGC, the established human lung adenocarcinoma cells NCIH1703 or NCIH292, the human pancreatic cancer cells PSN1 or BxPC3 and the human kidney adenocarcinoma cells Caki1 were grown in RPMI-1640 Medium (Sigma, St Quentin Fallavier, France) supplemented with 10% heat-inactivated fetal bovine serum (FBS) (Sigma, St Quentin Fallavier, France), […] L-glutamine (Sigma, St Quentin Fallavier, France) and 100 U/mL, 100 μg/mL penicillin-streptomycin (Sigma, St Quentin Fallavier, France). […]

[1] = Detroit562 cell line (Head & Neck)
[2] = LNCaP clone FGC cell line (Prostate)
[3] = MIA-Pa-Ca-2 cell line (Pancreatic)

B1: HzR022 (D-A10): humanized anti-CK8 monoclonal antibody D-A10; VL SEQ ID NO: 14, VH SEQ ID NO: 15 (antibody, V domains shown)
VH: EVQLVESGGGLVQPGGSLRLSCAASGFTFSSYWMSWVRQAPGKGLVWVSDINSDGSSTKYADSVKGRFTISRDNAKNTLYLQMNSLRAEDTAVYYCIAHYSGGGFAYWGQGTLVTVSS
VL: DIVMTQAPLSLPVTPGEPASISCRSSKSLLYSNGYNYLYWFLQKPGQSPQLLIYYMSNLASGVPDRFSGSGSGTDFTLKISRVEAEDVGVYYCMQSLEYPFTFGQGTKLEIK
modifications: VHHzD-A10; VLHzD-A10
With B1 the “% labelled cells” value (8-MG-BA cell line (GBM)) was 72 ± 11%, the MFI (8-MG-BA cell line (GBM)) was 261 ± 38 and the “% labelled cells” value (42-MG-BA cell line (GBM)) was 54 ± 7%. The MFI (42-MG-BA cell line (GBM)) was 247 ± 44, the “% labelled cells” value (5637 cell line (Urinary)) was 59 ± 20% and the MFI (5637 cell line (Urinary)) was 284 ± 61. The “% labelled cells” value (A172 cell line (GBM)) was 35 ± 23%, the MFI (A172 cell line (GBM)) was 186 ± 14 and the “% labelled cells” value (A549 cell line (Lung)) was 36 ± 12%. For the same molecule, the MFI (A549 cell line (Lung)) was 193 ± 38, the “% labelled cells” value (A704 cell line (Renal)) was 37 ± 26% and the MFI (A704 cell line (Renal)) was 184 ± 30. The “% labelled cells” value (ACHN cell line (Renal)) was 46 ± 20%, the MFI (ACHN cell line (Renal)) was 195 ± 20 and the “% labelled cells” value (AsPC-1 cell line (Pancreatic)) was 26 ± 14%. For the same molecule, the MFI (AsPC-1 cell line (Pancreatic)) was 181 ± 17, the “% labelled cells” value (BICR16 cell line (Head & Neck)) was 52 ± 2% and the MFI (BICR16 cell line (Head & Neck)) was 206 ± 10. For the same molecule, the “% labelled cells” value (BICR18 cell line (Head & Neck)) was 79 ± 9%, the MFI (BICR18 cell line (Head & Neck)) was 257 ± 23 and the “% labelled cells” value (BICR56 cell line (Head & Neck)) was 39 ± 34%. The MFI (BICR56 cell line (Head & Neck)) was 123 ± 4, the “% labelled cells” value (BxPC-3 cell line (Pancreatic)) was 41 ± 17% and the MFI (BxPC-3 cell line (Pancreatic)) was 220 ± 17. For the same molecule, the “% labelled cells” value (CFPAC-1 cell line (Pancreatic)) was 62 ± 4%, the MFI (CFPAC-1 cell line (Pancreatic)) was 279 ± 25 and the “% labelled cells” value (Caki1 cell line (Renal)) was 49 ± 12%. For the same molecule, the MFI (Caki1 cell line (Renal)) was 267 ± 36, the “% labelled cells” value (DU145 cell line (Prostate)) was 19 ± 11% and the MFI (DU145 cell line (Prostate)) was 185 ± 42. The “% labelled cells” value [1] was 36 ± 0%, the MFI [1] was 203 ± 15 and the “% labelled cells” value (FaDu cell line (Head & Neck)) was 56 ± 8%. The MFI (FaDu cell line (Head & Neck)) was 258 ± 20, the “% labelled cells” value (H4 cell line (GBM)) was 58 ± 33% and the MFI (H4 cell line (GBM)) was 199 ± 40. For the same molecule, the “% labelled cells” value (HBL100 cell line (Breast)) was 67 ± 8%, the MFI (HBL100 cell line (Breast)) was 219 ± 6 and the “% labelled cells” value (HCT116 cell line (Colon)) was 64 ± 0%. The MFI (HCT116 cell line (Colon)) was 283 ± 16, the “% labelled cells” value (HS683 cell line (GBM)) was 54 ± 9% and the MFI (HS683 cell line (GBM)) was 225 ± 24. For the same molecule, the “% labelled cells” value (HT29 cell line (Colon)) was 49 ± 9%, the MFI (HT29 cell line (Colon)) was 203 ± 22 and the “% labelled cells” value (HT1197 cell line (Urinary)) was 23 ± 7%. The MFI (HT1197 cell line (Urinary)) was 240 ± 4, the “% labelled cells” value (HT1376 cell line (Urinary)) was 53 ± 3% and the MFI (HT1376 cell line (Urinary)) was 497 ± 11. The “% labelled cells” value (HuP-T3 cell line (Pancreatic)) was 62 ± 17%, the MFI (HuP-T3 cell line (Pancreatic)) was 260 ± 20 and the “% labelled cells” value (J82 cell line (Urinary)) was 68 ± 9%. For the same molecule, the MFI (J82 cell line (Urinary)) was 319 ± 4, the “% labelled cells” value [2] was 76 ± 9% and the MFI [2] was 412 ± 21. The “% labelled cells” value (MCF-7 cell line (Breast)) was 56 ± 33%, the MFI (MCF-7 cell line (Breast)) was 250 ± 61 and the “% labelled cells” value (MDAMB231 cell line (Breast)) was 49 ± 14%. For the same molecule, the MFI (MDAMB231 cell line (Breast)) was 179 ± 15, the “% labelled cells” value [3] was 58 ± 14% and the MFI [3] was 264 ± 14. The “% labelled cells” value (NCIH292 cell line (Lung)) was 53 ± 20%, the MFI (NCIH292 cell line (Lung)) was 272 ± 38 and the “% labelled cells” value (NCIH1703 cell line (Lung)) was 33 ± 10%. For the same molecule, the MFI (NCIH1703 cell line (Lung)) was 188 ± 12, the “% labelled cells” value (PANC-1 cell line (Pancreatic)) was 37 ± 7% and the MFI (PANC-1 cell line (Pancreatic)) was 198 ± 23. The “% labelled cells” value (PSN-1 cell line (Pancreatic)) was 15 ± 6%, the MFI (PSN-1 cell line (Pancreatic)) was 193 ± 16 and the “% labelled cells” value (SCC4 cell line (Head & Neck)) was 59 ± 16%. For the same molecule, the MFI (SCC4 cell line (Head & Neck)) was 222 ± 88, the “% labelled cells” value (SCC9 cell line (Head & Neck)) was 30 ± 23% and the MFI (SCC9 cell line (Head & Neck)) was 193 ± 23. For the same molecule, the “% labelled cells” value (SCC 15 cell line (Head & Neck)) was 41 ± 21%, the MFI (SCC 15 cell line (Head & Neck)) was 167 ± 13 and the “% labelled cells” value (SW480 cell line (Colon)) was 38 ± 3%. The MFI (SW480 cell line (Colon)) was 179 ± 1, the “% labelled cells” value (T98G cell line (GBM)) was 48 ± 25% and the MFI (T98G cell line (GBM)) was 211 ± 20. The “% labelled cells” value (TCCSUP cell line (Urinary)) was 62 ± 10%, the MFI (TCCSUP cell line (Urinary)) was 255 ± 48 and the “% labelled cells” value (TR146 cell line (Head & Neck)) was 55 ± 18%. The MFI (TR146 cell line (Head & Neck)) was 140 ± 4, the “% labelled cells” value (U87-MG cell line (GBM)) was 38 ± 23% and the MFI (U87-MG cell line (GBM)) was 178 ± 35. The “% labelled cells” value (U373 cell line (GBM)) was 53 ± 1%, the MFI (U373 cell line (GBM)) was 161 ± 7 and the “% labelled cells” value (UM-UC-3 cell line (Urinary)) was 26 ± 23%. For the same molecule, the MFI (UM-UC-3 cell line (Urinary)) was 156 ± 14.
